Source: patent US20160120951A1 (ZEALAND PHARMA A S, published 2016)
Numbered stars: 1 amine (or outer) side, 2 acyl side, 3 side chain; on linkers, the order of the positions; unused ones are H or OH. Square brackets hold non-standard residues; d marks the D form. Side chains are listed from the residue outwards. * marks the point of attachment. isoGlu = used interchangeably with γ-Glu; γGlu = O=C(O)[C@H](CCC(=O)[*:2])N[*:1]; Palmitoyl = CCCCCCCCCCCCCCCC(=O)*; Aib = CC(C)(N)C(=O)O

B1: Compound 31 (peptide)
peptide: HXQGTFTSDYSKYLDSKAAHDFVEWLLSA
modifications: Aib at position 2; K(Hexadecanoyl-[3-Aminopropanoyl]) at position 17; C-terminal amide (NH2)
B2: Compound 28 (peptide)
peptide: HXQGTFTSDYSKYLDSKAAHDFVEWLLSA
modifications: Aib at position 2; K(Hexadecanoyl-E) (Hexadecanoyl-αGlu) at position 17; C-terminal amide (NH2)
B3: Compound 33 (peptide)
peptide: HXQGTFTSDYSKYLDSKAAHDFVEWLLSA
modifications: Aib at position 2; K(Hexadecanoyl-isoGlu) at position 12; C-terminal amide (NH2)
B4: Compound 29 (peptide)
peptide: HXQGTFTSDYSKYLDSKAAHDFVEWLLSA
modifications: Aib at position 2; K(Hexadecanoyl-[8-Aminooctanoyl]) at position 17; C-terminal amide (NH2)
B5: Compound 25 (peptide)
peptide: HXQGTFTSDYSKYLDSKAAHDFVEWLLSA
modifications: Aib at position 2; K(Octadecanoyl-isoGlu) at position 17; C-terminal amide (NH2)
B6: Compound 20 (peptide)
peptide: H-H[Aib]EGTFTSDYSKYLDSK([γGlu-Palmitoyl])AAHDFVEWLLSA-OH
SMILES: CCCCCCCCCCCCCCCC(=O)N[C@@H](CCC(=O)NCCCC[C@H](NC(=O)[C@H](CO)NC(=O)[C@H](CC(=O)O)NC(=O)[C@H](CC(C)C)NC(=O)[C@H](Cc1ccc(O)cc1)NC(=O)[C@H](CCCCN)NC(=O)[C@H](CO)NC(=O)[C@H](Cc1ccc(O)cc1)NC(=O)[C@H](CC(=O)O)NC(=O)[C@H](CO)NC(=O)[C@@H](NC(=O)[C@H](Cc1ccccc1)NC(=O)[C@@H](NC(=O)CNC(=O)[C@H](CCC(=O)O)NC(=O)C(C)(C)NC(=O)[C@@H](N)Cc1c[nH]cn1)[C@@H](C)O)[C@@H](C)O)C(=O)N[C@@H](C)C(=O)N[C@@H](C)C(=O)N[C@@H](Cc1c[nH]cn1)C(=O)N[C@@H](CC(=O)O)C(=O)N[C@@H](Cc1ccccc1)C(=O)N[C@H](C(=O)N[C@@H](CCC(=O)O)C(=O)N[C@@H](Cc1c[nH]c2ccccc12)C(=O)N[C@@H](CC(C)C)C(=O)N[C@@H](CC(C)C)C(=O)N[C@@H](CO)C(=O)N[C@@H](C)C(=O)O)C(C)C)C(=O)O
B7: Compound 30 (peptide)
peptide: HXQGTFTSDYSKYLDSKAAHDFVEWLLSA
modifications: Aib at position 2; K(Hexadecanoyl-isoLys) at position 17; C-terminal amide (NH2)
B8: Compound 22 (peptide)
peptide: H-H[Aib]EGTFTSDYSKYLDSK([γGlu-Palmitoyl])AAHDFVEWLLSA-NH2
SMILES: CCCCCCCCCCCCCCCC(=O)N[C@@H](CCC(=O)NCCCC[C@H](NC(=O)[C@H](CO)NC(=O)[C@H](CC(=O)O)NC(=O)[C@H](CC(C)C)NC(=O)[C@H](Cc1ccc(O)cc1)NC(=O)[C@H](CCCCN)NC(=O)[C@H](CO)NC(=O)[C@H](Cc1ccc(O)cc1)NC(=O)[C@H](CC(=O)O)NC(=O)[C@H](CO)NC(=O)[C@@H](NC(=O)[C@H](Cc1ccccc1)NC(=O)[C@@H](NC(=O)CNC(=O)[C@H](CCC(=O)O)NC(=O)C(C)(C)NC(=O)[C@@H](N)Cc1c[nH]cn1)[C@@H](C)O)[C@@H](C)O)C(=O)N[C@@H](C)C(=O)N[C@@H](C)C(=O)N[C@@H](Cc1c[nH]cn1)C(=O)N[C@@H](CC(=O)O)C(=O)N[C@@H](Cc1ccccc1)C(=O)N[C@H](C(=O)N[C@@H](CCC(=O)O)C(=O)N[C@@H](Cc1c[nH]c2ccccc12)C(=O)N[C@@H](CC(C)C)C(=O)N[C@@H](CC(C)C)C(=O)N[C@@H](CO)C(=O)N[C@@H](C)C(N)=O)C(C)C)C(=O)O
B9: Compound 34 (peptide)
peptide: H-H[Aib]QGTFTSDYSKYLDK([γGlu-Palmitoyl])KAAHDFVEWLLSA-NH2
SMILES: CCCCCCCCCCCCCCCC(=O)N[C@@H](CCC(=O)NCCCC[C@H](NC(=O)[C@H](CC(=O)O)NC(=O)[C@H](CC(C)C)NC(=O)[C@H](Cc1ccc(O)cc1)NC(=O)[C@H](CCCCN)NC(=O)[C@H](CO)NC(=O)[C@H](Cc1ccc(O)cc1)NC(=O)[C@H](CC(=O)O)NC(=O)[C@H](CO)NC(=O)[C@@H](NC(=O)[C@H](Cc1ccccc1)NC(=O)[C@@H](NC(=O)CNC(=O)[C@H](CCC(N)=O)NC(=O)C(C)(C)NC(=O)[C@@H](N)Cc1c[nH]cn1)[C@@H](C)O)[C@@H](C)O)C(=O)N[C@@H](CCCCN)C(=O)N[C@@H](C)C(=O)N[C@@H](C)C(=O)N[C@@H](Cc1c[nH]cn1)C(=O)N[C@@H](CC(=O)O)C(=O)N[C@@H](Cc1ccccc1)C(=O)N[C@H](C(=O)N[C@@H](CCC(=O)O)C(=O)N[C@@H](Cc1c[nH]c2ccccc12)C(=O)N[C@@H](CC(C)C)C(=O)N[C@@H](CC(C)C)C(=O)N[C@@H](CO)C(=O)N[C@@H](C)C(N)=O)C(C)C)C(=O)O
B10: Compound 21 (peptide)
peptide: HXQGTFTSDYSKYLDSKAAHDFVEWLLSA
modifications: Aib at position 2; K(Hexadecanoyl-isoGlu) at position 17; free C-terminal acid (OH)
B11: Compound 24 (peptide)
peptide: HXQGTFTSDYSKYLDSKAAHDFVEWLLSA
modifications: Aib at position 2; K([2-Butyloctanoyl]-isoGlu) at position 17; C-terminal amide (NH2)
B12: Compound 19 (peptide)
peptide: H-H[Aib]QGTFTSDYSKYLDSK([γGlu-Palmitoyl])AAHDFVEWLL-OH
SMILES: CCCCCCCCCCCCCCCC(=O)N[C@@H](CCC(=O)NCCCC[C@H](NC(=O)[C@H](CO)NC(=O)[C@H](CC(=O)O)NC(=O)[C@H](CC(C)C)NC(=O)[C@H](Cc1ccc(O)cc1)NC(=O)[C@H](CCCCN)NC(=O)[C@H](CO)NC(=O)[C@H](Cc1ccc(O)cc1)NC(=O)[C@H](CC(=O)O)NC(=O)[C@H](CO)NC(=O)[C@@H](NC(=O)[C@H](Cc1ccccc1)NC(=O)[C@@H](NC(=O)CNC(=O)[C@H](CCC(N)=O)NC(=O)C(C)(C)NC(=O)[C@@H](N)Cc1c[nH]cn1)[C@@H](C)O)[C@@H](C)O)C(=O)N[C@@H](C)C(=O)N[C@@H](C)C(=O)N[C@@H](Cc1c[nH]cn1)C(=O)N[C@@H](CC(=O)O)C(=O)N[C@@H](Cc1ccccc1)C(=O)N[C@H](C(=O)N[C@@H](CCC(=O)O)C(=O)N[C@@H](Cc1c[nH]c2ccccc12)C(=O)N[C@@H](CC(C)C)C(=O)N[C@@H](CC(C)C)C(=O)O)C(C)C)C(=O)O
B13: Compound 18 (peptide)
peptide: H-H[Aib]QGTFTSDYSKYLDSK([γGlu-Palmitoyl])AAHDFVEWLLS-OH
SMILES: CCCCCCCCCCCCCCCC(=O)N[C@@H](CCC(=O)NCCCC[C@H](NC(=O)[C@H](CO)NC(=O)[C@H](CC(=O)O)NC(=O)[C@H](CC(C)C)NC(=O)[C@H](Cc1ccc(O)cc1)NC(=O)[C@H](CCCCN)NC(=O)[C@H](CO)NC(=O)[C@H](Cc1ccc(O)cc1)NC(=O)[C@H](CC(=O)O)NC(=O)[C@H](CO)NC(=O)[C@@H](NC(=O)[C@H](Cc1ccccc1)NC(=O)[C@@H](NC(=O)CNC(=O)[C@H](CCC(N)=O)NC(=O)C(C)(C)NC(=O)[C@@H](N)Cc1c[nH]cn1)[C@@H](C)O)[C@@H](C)O)C(=O)N[C@@H](C)C(=O)N[C@@H](C)C(=O)N[C@@H](Cc1c[nH]cn1)C(=O)N[C@@H](CC(=O)O)C(=O)N[C@@H](Cc1ccccc1)C(=O)N[C@H](C(=O)N[C@@H](CCC(=O)O)C(=O)N[C@@H](Cc1c[nH]c2ccccc12)C(=O)N[C@@H](CC(C)C)C(=O)N[C@@H](CC(C)C)C(=O)N[C@@H](CO)C(=O)O)C(C)C)C(=O)O
B14: Compound 27 (peptide)
peptide: HXQGTFTSDYSKYLDSKAAHDFVEWLLSA
modifications: Aib at position 2; K(Hexadecanoyl-[4-Aminobutanoyl]) at position 17; C-terminal amide (NH2)
B15: Compound 32 (peptide)
peptide: HXQGTFTSDYSKYLDSXAAHDFVEWLLSA
modifications: Aib at position 2; Orn(Hexadecanoyl-isoGlu) at position 17; C-terminal amide (NH2)
B16: Compound 35 (peptide)
peptide: H-H[Aib]QGTFTSDYSKYLDSKAAK([γGlu-Palmitoyl])DFVEWLLSA-NH2
SMILES: CCCCCCCCCCCCCCCC(=O)N[C@@H](CCC(=O)NCCCC[C@H](NC(=O)[C@H](C)NC(=O)[C@H](C)NC(=O)[C@H](CCCCN)NC(=O)[C@H](CO)NC(=O)[C@H](CC(=O)O)NC(=O)[C@H](CC(C)C)NC(=O)[C@H](Cc1ccc(O)cc1)NC(=O)[C@H](CCCCN)NC(=O)[C@H](CO)NC(=O)[C@H](Cc1ccc(O)cc1)NC(=O)[C@H](CC(=O)O)NC(=O)[C@H](CO)NC(=O)[C@@H](NC(=O)[C@H](Cc1ccccc1)NC(=O)[C@@H](NC(=O)CNC(=O)[C@H](CCC(N)=O)NC(=O)C(C)(C)NC(=O)[C@@H](N)Cc1c[nH]cn1)[C@@H](C)O)[C@@H](C)O)C(=O)N[C@@H](CC(=O)O)C(=O)N[C@@H](Cc1ccccc1)C(=O)N[C@H](C(=O)N[C@@H](CCC(=O)O)C(=O)N[C@@H](Cc1c[nH]c2ccccc12)C(=O)N[C@@H](CC(C)C)C(=O)N[C@@H](CC(C)C)C(=O)N[C@@H](CO)C(=O)N[C@@H](C)C(N)=O)C(C)C)C(=O)O

Each binder was assayed against human glucagon-like peptide 1 receptor (GLP-1R) (human, UniProt P43220 24-463) (assay: cell-based or functional assay).
human glucagon-like peptide 1 receptor (GLP-1R), sequence (P43220 24-463): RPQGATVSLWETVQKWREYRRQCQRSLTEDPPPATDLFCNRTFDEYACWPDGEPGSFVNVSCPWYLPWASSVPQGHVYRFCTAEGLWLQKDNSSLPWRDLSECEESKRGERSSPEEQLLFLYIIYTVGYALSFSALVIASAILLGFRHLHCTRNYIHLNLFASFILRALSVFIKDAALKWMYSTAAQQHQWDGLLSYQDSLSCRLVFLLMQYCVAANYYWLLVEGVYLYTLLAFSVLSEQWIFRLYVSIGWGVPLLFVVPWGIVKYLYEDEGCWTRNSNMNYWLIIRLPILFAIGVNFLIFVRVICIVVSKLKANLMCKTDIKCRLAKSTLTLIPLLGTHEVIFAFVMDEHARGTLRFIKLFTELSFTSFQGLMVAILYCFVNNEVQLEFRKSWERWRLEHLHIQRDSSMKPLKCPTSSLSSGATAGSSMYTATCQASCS

| EC50 (nM) GLP-1R, cAMP formation | Binder |
| --- | --- |
| 0.103 nM | B1 |
| 0.149 nM | B2 |
| 0.131 nM | B3 |
| 0.199 nM | B4 |
| 0.069 nM | B5 |
| 0.057 nM | B6 |
| 0.132 nM | B7 |
| 0.014 nM | B8 |
| 0.109 nM | B9 |
| 0.097 nM | HXQGTFTSDYSKYLDSKAAHDFVEWLLSA (Aib at position 2; K(Dodecanoyl-isoGlu) at position 17; C-terminal amide (NH2)) [Compound 26] |
| 0.16 nM | H-H[Aib]QGTFTSDYSKYLDSK([isoGlu-Palmitoyl])AAKDFVEWLLSA-NH2 [Compound 39] |
| 0.207 nM | H-H[Aib]QGTFTSDYSKYLDSKAAHDFVEWLLK([isoGlu-Palmitoyl])A-NH2 [Compound 37] |
| 0.077 nM | B10 |
| 0.161 nM | B11 |
| 0.048 nM | B12 |
| 0.191 nM | H-H[Aib]QGTFTSDYSKYLDSKAAHDFVK([isoGlu-Palmitoyl])WLLSA-NH2 [Compound 36] |
| 0.066 nM | B13 |
| 0.152 nM | B14 |
| 0.195 nM | B15 |
| 0.202 nM | B16 |
| 0.14 nM | HXQGTFTSDYSKYLDSKAAHDFVEWLLSA (Aib at position 2; K(Hexadecanoyl) at position 17; C-terminal amide (NH2)) [Compound 23] |

The binders below were run against human glucagon receptor (Glucagon-R) (human, UniProt P47871 26-477) (assay: cell-based or functional assay).

| EC50 (nM) GluR, cAMP formation | Binder |
| --- | --- |
| 0.151 nM | B1 |
| 0.108 nM | B2 |
| 0.389 nM | B3 |
| 0.123 nM | B4 |
| 0.103 nM | B5 |
| 13.3 nM | B6 |
| 0.11 nM | B7 |
| 26.4 nM | B8 |
| 0.053 nM | B9 |
| 0.116 nM | HXQGTFTSDYSKYLDSKAAHDFVEWLLSA (Aib at position 2; K(Dodecanoyl-isoGlu) at position 17; C-terminal amide (NH2)) [Compound 26] |
| 0.24 nM | H-H[Aib]QGTFTSDYSKYLDSK([isoGlu-Palmitoyl])AAKDFVEWLLSA-NH2 [Compound 39] |
| 0.147 nM | H-H[Aib]QGTFTSDYSKYLDSKAAHDFVEWLLK([isoGlu-Palmitoyl])A-NH2 [Compound 37] |
| 0.15 nM | B10 |
| 0.133 nM | B11 |
| 0.483 nM | B12 |
| 0.213 nM | H-H[Aib]QGTFTSDYSKYLDSKAAHDFVK([isoGlu-Palmitoyl])WLLSA-NH2 [Compound 36] |
| 0.091 nM | B13 |
| 0.147 nM | B14 |
| 0.193 nM | B15 |
| 0.18 nM | B16 |
| 0.124 nM | HXQGTFTSDYSKYLDSKAAHDFVEWLLSA (Aib at position 2; K(Hexadecanoyl) at position 17; C-terminal amide (NH2)) [Compound 23] |
